Source: patent US20260151496A1 (FUDAN UNIVERSITY, published 2026)
Like-named read-outs stand apart in the source and are kept apart here.

Assays:
[1] = molecular target: T1, human HER2 His6 protein, extracellular domain (NCBI NP_004439.2, Met 1-Thr 652), C-terminal polyhistidine tag (human, UniProt P04626 23-652); experiment: ELISA, HER2 protein coated at 1 µg/mL, detection with HRP-labelled protein A, OD 450 nm
T1 construct: range 1-652; The stated range includes Met 1; also called HER2-ECD; human HER2-ECD
Experimental: (§1) HER2 protein was diluted to 1 μg/mL with coating solution, coated onto ELISA plate, 100 μL/well, 4° C., overnight. The excess antigens were washed off. The plate was blocked with 1% BSA at room temperature for 2 hours, then 5-fold gradient diluted monoclonal antibodies were added at 100 μL/well, and the plate was incubated at room temperature for 1 hour; the unbound antibodies were washed off, and suitable concentration of horseradish peroxidase labeled Staphylococcus protein A was added at 100 μL/well, and the plate was incubated at room temperature for 0.5 hours. The unbound secondary antibody was washed off. TMB colorimetric solution was added and reacted for about 15 minutes. 1M HCl at 50 μL/well was added to terminate the colorimetric reaction, then the absorbance was measured at 450 nm and the data was analyzed.

[2] = molecular target: T1, human HER2 His6 protein, extracellular …; experiment: ForteBio OCTET R2, antibody captured on Protein A sensor, HER2 protein in solution, 25 °C
Experimental: (§2) […] detection was performed and Protein A sensor was used to solidify the antibody at a curing height of approximately […]. […] Affinity detection: equilibrium for 60 seconds, binding for 180 seconds, dissociation for 180 seconds, detection at 25° C., and kinetic characterization analysis was performed using the ForteBio OCTET R2 system.

[3] = molecular target: T2, HER2 receptor on the surface of NCI-N87 cells (human, UniProt P04626 23-1255); experiment: flow cytometry on NCI-N87 cells, PE-labelled secondary antibody
T2 construct: whole, on cells; also called HER2 on tumor cell surface
Experimental: (§3) HER2 overexpressing gastric cancer cell line NCI-N87 was used as the target cell. 100 μL of the test antibody diluted in a 10 folds gradient was used as the primary antibody. It was mixed with 1×10⁵ tumor cells suspended in 100 μL RPMI-1640 serum-free medium at final concentrations of 10 μg/mL, 1 μg/mL, and 0.1 μg/mL. The cells were then incubated at 4° C. for 1 hour, washed twice with PBS to remove unbound primary antibodies, and incubated with 200 μL, 2 μg/mL, PE labeled secondary antibodies at 4° C. for 30 minutes. The cells were washed twice with PBS to remove unbound secondary antibodies. Finally, the cells were resuspended in 200 μL PBS and analyzed by flow cytometry to determine the binding affinity of the test antibody to HER2 on the corresponding cell surface.

[4] = molecular target: T1, human HER2 His6 protein, extracellular …; experiment: called SPR, run on ForteBio OCTET R2; antibody captured on Protein A sensor, HER2 protein at 500-31.3 nM as analyte, 25 °C
Experimental: as §2

[5] = molecular target: T1, human HER2 His6 protein, extracellular …; experiment: ELISA, HER2 protein coated at 1 µg/mL, detection with HRP-labelled protein A
Experimental: as §1

[6] = molecular target: T2, HER2 receptor on the surface of NCI-N87 …; experiment: flow cytometry on NCI-N87 cells, PE-labelled secondary antibody; remark: listed apart in the source
Experimental: as §3

Binder | EC50 [1] [nM] | koff [2] [s⁻¹] | kon [2] [M⁻¹ s⁻¹] | EC50 [3] [µg/mL] | Kd [4] [nM] | EC50 [5] [µg/mL] | EC50 [6] [nM] | Max MFI [6]
HER2 VHH-FC1 fusion protein 2-C07 (Fc fusion, 25; also called 2-C07-FC1; chimeric nanobody 2-C07) AVQLVESGGGLVQPGGSLRLSCAASGLTFMRYDINWYRQAPGKERELVAALDSSSGRTNYADFTEGRFTISRNNAKNSAYLQMNNLKPEDTASYYCNAQWKRIGADYWGQGTQVTVFSEPKSSDKTHTCPPCPAPEFEGGPSVFLFPPKPKDTLMISRTPEVTCVVVDVSHEDPEVKFNWYVDGVEVHNAKTKPREEQYNSTYRVVSVLTVLHQDWLNGKEYKCKVSNKALPASIEKTISKAKGQPREPQVYTLPPSRDELTKNQVSLTCLVKGFYPSDIAVEWESNGQPENNYKTTPPVLDSDGSFFLYSKLTVDKSRWQQGNVFSCSVMHEALHNHYTQKSLSLSPGK | 0.07 | 0.00251 | 338000 | 0.131 | 7.42 | 0.005 | 1.68 | 241000
HER2 VHH-FC1 fusion protein 1-G07 (Fc fusion, 25; also called 1-G07-FC1; chimeric nanobody 1-G07) QVQLVESGGGKAQPGGSLRLSCVASRITFRHYDLSWYRQAPGQERELVATVTNGGVITYADSVKGRFTISRDNAKNTVQLQMNNLKPEDTAVYYCNAVWVYLQRLTQNKKENDYWGPGTQVTVSSEPKSSDKTHTCPPCPAPEFEGGPSVFLFPPKPKDTLMISRTPEVTCVVVDVSHEDPEVKFNWYVDGVEVHNAKTKPREEQYNSTYRVVSVLTVLHQDWLNGKEYKCKVSNKALPASIEKTISKAKGQPREPQVYTLPPSRDELTKNQVSLTCLVKGFYPSDIAVEWESNGQPENNYKTTPPVLDSDGSFFLYSKLTVDKSRWQQGNVFSCSVMHEALHNHYTQKSLSLSPGK | 0.128 |  |  | 0.199 |  | 0.01 | 2.48 | 250000
HER2 VHH-FC1 fusion protein 1-C09 (Fc fusion, 25; also called 1-C09-FC1; 1-C9-FC1) DVQLVESGGGLVQPGGSLRLSCEASGLTFRRYHFSWYRQPPGKERELVAVISDTGSTTNYTDSVKGRFTISRDLARNTVFLQLNSLKPDDTAVYYCNAKWPIIAADWWGQGTQVTVSSEPKSSDKTHTCPPCPAPEFEGGPSVFLFPPKPKDTLMISRTPEVTCVVVDVSHEDPEVKFNWYVDGVEVHNAKTKPREEQYNSTYRVVSVLTVLHQDWLNGKEYKCKVSNKALPASIEKTISKAKGQPREPQVYTLPPSRDELTKNQVSLTCLVKGFYPSDIAVEWESNGQPENNYKTTPPVLDSDGSFFLYSKLTVDKSRWQQGNVFSCSVMHEALHNHYTQKSLSLSPGK | 0.125 | 0.0118 | 974000 | 0.109 | 12.1 | 0.01 | 1.39 | 269000
HER2 VHH-FC1 fusion protein 2-F03 (Fc fusion, 25; also called 2-F03-FC1; chimeric nanobody 2-F03) EVQLVESGGGLVQPGGSLRLSCAASGLTFRRYHMSWYRQAPGKERELVAVISDTGTTNYAESVKGRFTISRDNSRSTVFLQLNSLKPDDTAVYYCNGRWPAVAADWWGQGTQVTVSSEPKSSDKTHTCPPCPAPEFEGGPSVFLFPPKPKDTLMISRTPEVTCVVVDVSHEDPEVKFNWYVDGVEVHNAKTKPREEQYNSTYRVVSVLTVLHQDWLNGKEYKCKVSNKALPASIEKTISKAKGQPREPQVYTLPPSRDELTKNQVSLTCLVKGFYPSDIAVEWESNGQPENNYKTTPPVLDSDGSFFLYSKLTVDKSRWQQGNVFSCSVMHEALHNHYTQKSLSLSPGK | 0.05 | 0.0108 | 466000 | 0.13 | 23.2 | 0.004 | 1.67 | 234000
HER2 VHH-FC1 fusion protein 1-C10 (Fc fusion, 25; also called 1-C10-FC1; chimeric nanobody 1-C10) QVQLVESGGDLVQPGGSLRLSCATSGLTFRRYELKWYRQAPGKERELVAGITPASGSRNYADSVKGRFTISRDDAKMTVYLQMNSLEPEDTAVYYCNAYWMIPQHIENNYWGKGTLVTVSSEPKSSDKTHTCPPCPAPEFEGGPSVFLFPPKPKDTLMISRTPEVTCVVVDVSHEDPEVKFNWYVDGVEVHNAKTKPREEQYNSTYRVVSVLTVLHQDWLNGKEYKCKVSNKALPASIEKTISKAKGQPREPQVYTLPPSRDELTKNQVSLTCLVKGFYPSDIAVEWESNGQPENNYKTTPPVLDSDGSFFLYSKLTVDKSRWQQGNVFSCSVMHEALHNHYTQKSLSLSPGK | 0.22 | 0.001 | 217000 | 0.209 | 4.61 | 0.017 | 2.64 | 240000
HER2 VHH-FC1 fusion protein 1-B05 (Fc fusion, 25; also called 1-B05-FC1; chimeric nanobody 1-B05) AVQLVESGGGPGGSLRLSCAASGITFFRHTLGWYRQAPGKQRELVASITGGESTNYADSVKSRFTISRDNAKNMVFLQMNSLKPEDTALYYCNSKWDAAGVEFWGKGTLVTVSSEPKSSDKTHTCPPCPAPEFEGGPSVFLFPPKPKDTLMISRTPEVTCVVVDVSHEDPEVKFNWYVDGVEVHNAKTKPREEQYNSTYRVVSVLTVLHQDWLNGKEYKCKVSNKALPASIEKTISKAKGQPREPQVYTLPPSRDELTKNQVSLTCLVKGFYPSDIAVEWESNGQPENNYKTTPPVLDSDGSFFLYSKLTVDKSRWQQGNVFSCSVMHEALHNHYTQKSLSLSPGK | 0.069 | 0.0108 | 1.22e+06 | 0.144 | 8.9 | 0.005 | 1.86 | 245000
